Results from patent US20110059078A1 (AstraZeneca / MedImmune, published 2011).

T1: human interferon alpha receptor 1 (IFNAR1), on cells (human, UniProt P17181 28-557)
T1 sequence (looked up): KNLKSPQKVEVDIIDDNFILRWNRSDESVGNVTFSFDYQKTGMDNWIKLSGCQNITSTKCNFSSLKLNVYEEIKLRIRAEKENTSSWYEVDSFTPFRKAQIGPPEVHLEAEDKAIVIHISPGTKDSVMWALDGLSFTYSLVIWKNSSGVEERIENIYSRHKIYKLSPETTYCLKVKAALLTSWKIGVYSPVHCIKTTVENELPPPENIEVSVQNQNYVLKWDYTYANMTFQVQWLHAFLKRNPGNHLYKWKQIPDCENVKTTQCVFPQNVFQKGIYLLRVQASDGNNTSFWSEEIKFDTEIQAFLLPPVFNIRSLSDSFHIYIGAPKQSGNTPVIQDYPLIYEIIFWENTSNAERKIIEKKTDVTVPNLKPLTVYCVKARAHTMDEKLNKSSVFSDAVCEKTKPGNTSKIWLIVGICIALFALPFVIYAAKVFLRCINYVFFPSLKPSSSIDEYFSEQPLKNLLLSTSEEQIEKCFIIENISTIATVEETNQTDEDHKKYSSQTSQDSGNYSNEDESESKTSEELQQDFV

T2: ovalbumin (UniProt P01012 2-386)
T2 construct: Control protein; also called soluble ovalbumin
T2 sequence (looked up): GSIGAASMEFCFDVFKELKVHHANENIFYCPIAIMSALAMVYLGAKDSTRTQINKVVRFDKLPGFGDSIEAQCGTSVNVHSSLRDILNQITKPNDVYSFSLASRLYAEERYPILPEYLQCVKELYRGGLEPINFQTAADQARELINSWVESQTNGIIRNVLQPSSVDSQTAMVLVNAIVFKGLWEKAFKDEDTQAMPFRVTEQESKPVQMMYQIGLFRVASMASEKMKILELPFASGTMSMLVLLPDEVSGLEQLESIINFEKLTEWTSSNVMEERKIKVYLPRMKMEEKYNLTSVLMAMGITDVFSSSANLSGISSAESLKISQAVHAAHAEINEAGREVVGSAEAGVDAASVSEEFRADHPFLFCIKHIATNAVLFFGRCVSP


What was measured:
[1] = target: human interferon alpha receptor 1 (IFNAR1), on cells (human) (UniProt P17181); experiment: cell-based or functional assay
[2] = target: T1, human interferon alpha receptor 1 …; experiment: cell-based or functional assay
ovalbumin [3] = target: T2, ovalbumin; experiment: BIAcore, ovalbumin control, antibody at 333 nM, reference-subtracted
Method: All experiments were performed on a BIAcore 3000 instrument (BIAcore, Inc., Uppsala, Sweden). […] Separately, a blank surface was also prepared on each chip using the identical protocol, minus the protein. This blank surface was used as a reference cell throughout the experiment, and served to correct for both non-specific binding and certain housekeeping artifacts.

[4] = target: T1, human interferon alpha receptor 1 …; experiment: europium-labelled antibody binding to HEK 293F cells, Kd from binding curves (GraphPad Prism)
Method: Methods: 200,000 HEK 293F cells were seeded in a round bottom, 96-well plate using 50 μL RPMI 1640 media supplemented with 10% FBS. […] 25 μL of europium conjugated, serially diluted antibody was then added to appropriate wells and cells and antibodies were agitated gently at room temperature for 1-2 hours. After binding incubation, 150 μL of cell media was added to all wells and plates were spun at 1200 rpm for 5 minutes at room temperature. Plates were quickly decanted and 250 μL cell media was added to all wells. Spins and washes were repeated for a total of 3 washes. Cells were then resuspended in 100 μL cell media. 50 μL of resuspended cells were transferred to 200 μL of DELPHIA enhancement solution (PerkinElmer) in a DELPHIA yellow microtiter plate and Europium emission was measured on a Victor2 Multilabel reader (PerkinElmer). Signal was measured in cps and Kd values and Bₘₐₓ values were generated using GraphPad Prism 4 analysis software.

[5] = target: T1, human interferon alpha receptor 1 …; experiment: cell-based or functional assay; remark: listed apart in the source
[6] = target: T3, FcγRIIIA variant 158V (high affinity) with Flag tag (UniProt P08637 17-208); experiment: ELISA, antibody coated on the plate at 50 µg/ml, Flag-tagged FcγRIIIA titrated, biotin anti-Flag and avidin-HRP
T3 construct: also called FcγRIIIA-10 158V; not shown: Flag tag
T3 sequence (P08637 other isoform, or with tags, fused parts or gaps mutant): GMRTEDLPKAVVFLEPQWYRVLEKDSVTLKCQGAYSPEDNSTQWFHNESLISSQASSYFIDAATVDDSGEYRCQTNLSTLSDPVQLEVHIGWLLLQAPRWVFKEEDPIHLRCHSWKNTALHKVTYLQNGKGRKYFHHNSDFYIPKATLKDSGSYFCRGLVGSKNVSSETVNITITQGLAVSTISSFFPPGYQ
Method: (§1) The plate was washed one hour later and incubated with biotin conjugated anti Flag antibody (Sigma) at 2 μg/ml. After washing 25 μl of HRP conjugated Avidin was added to each well. The unbound materials were removed by washing one hour after incubation. The binding signal was detected with the substrate TMB.

[7] = target: T4, FcγRIIIA variant 158F (low affinity) with Flag tag (UniProt P08637 17-208, limits assumed); experiment: as above
T4 construct: not shown: Flag tag
T4 sequence (P08637 17-208 limits assumed, change not shown): as the sequence (P08637 other isoform, or with tags, fused parts or gaps mutant) above, with V160F counted along it
Method: as §1

ovalbumin [8] = target: T2, ovalbumin; experiment: BIAcore, control surface, FcγRI injected at 20 nM, reference-subtracted
Method: Methods: All experiments were performed on a BIAcore 3000 instrument (BIAcore, Inc., Uppsala, Sweden). In a typical experiment 1 μM solutions of 9D4 IgGs were used to immobilize anywhere from ˜7000 RUs−˜11,000 RUs of protein onto CM5 sensor chip surfaces using a standard amino coupling protocol (BIAcore, Inc.). Separately, a blank surface was also prepared on each chip using the identical protocol, minus the protein. This blank surface was used as a reference cell throughout the experiment, and served to correct for both non-specific binding and certain housekeeping artifacts.

[9] = target: T1, human interferon alpha receptor 1 …; experiment: IHC of human monocytes with biotinylated antibody
Method: Human Monocytes: A cell suspension was smeared/spotted directly onto slides. The slides were allowed to dry overnight and then soaked in Acetone for 10 min and allowed to air dry. Prior to use, slides were dipped into 10% neutral buffered formalin for 10 secs and washed 3× in buffer (1×TBS with 0.01% Tween20).
Slide staining: After washing in buffer, slides were treated to quench endogenous peroxidases by treatment with a solution of Glucose Oxidase (1 U/ml, Sigma G0543), B-D(+) Glucose (10 mM, Sigma G5250), Sodium Azide (1 mM, Sigma, S8032) for 1 hour at room temperature. Slides were then rinsed in wash buffer (1×TBS with 0.01% Tween 20). Slides were placed in a protein block solution (1×PBS pH7.2, 0.5% casein(N-Z amine, Sigma CO626), 1% BSA (Sigma A7906), 1.5% Normal Goat serum (Jackson Labs #005-000-001) for 30 min at room temperature. Biotinylated antibody (see above) was applied to the slides by dilution into the protein block solution. Incubation of the slides with the biotinylated antibody was performed at room temperature for 2 hours. Slides were rinsed 3× in wash buffer (1×TBS, 0.01% Tween 20). Antibody detection was performed using a Vectastain Kit (Vector Laboratories). Slides were washed and counterstained with hematoxylin. Slides were dehydrated and mounted with coverslips prior to viewing.

Molecule | IC50, HiL3 ISRE-luciferase reporter assay, neutralization of Human Leukocyte IFN [2] [µg/mL] | IC50, HiL3 ISRE-luciferase reporter assay, neutralization of IFNα 2b [2] [ng/mL] | IC50, HiL3 ISRE-luciferase reporter assay, neutralization of IFNα10 [2] [ng/mL] | IC50, HiL3 ISRE-luciferase reporter assay, neutralization of IFNβ [2] [µg/mL] | IC50, HiL3 ISRE-luciferase reporter assay, neutralization of IFNω [2] [µg/mL] | IC50, luciferase reporter assay, Leukocyte IFN signaling [2] [nM] | IC50, suppression of CD38 expression on cells stimulated with leukocyte-IFN [2] [ng/mL] | IC50, suppression of CD86 expression on cells stimulated with leukocyte-IFN [2] [ng/mL] | IC50, suppression of CD123 expression on cells stimulated with leukocyte-IFN [2] [ng/mL] | binding result (ovalbumin [3]) | Kd [4] [nM] | further results
anti-IFNAR1 antibody MDX-1333 | – | – | – | – | – | – | – | – | – | – | – | IC50, HiL3 ISRE-luciferase reporter assay, neutralization of Human Leukocyte IFN [1]: 1.12 µg/mL; IC50, HiL3 ISRE-luciferase reporter assay, neutralization of IFNα 2b [1]: 0.646 ng/mL; IC50, HiL3 ISRE-luciferase reporter assay, neutralization of IFNα10 [1]: 0.0988 µg/mL; IC50, HiL3 ISRE-luciferase reporter assay, neutralization of IFNβ [1]: 19 µg/mL; IC50, HiL3 ISRE-luciferase reporter assay, neutralization of IFNω [1]: 5.32 µg/mL; IC50, luciferase reporter assay, Leukocyte IFN signaling [1]: 0.04 nM
anti-IFNAR1 antibody 9D4 (parental, unmodified) (antibody, V domains shown, Whole IgG with unmodified Fc; the TM variant was engineered on human IgG1 and IgG1 isotype controls were used; Biotinylated in some ELISAs; also called 9D4-WT; 9D4WT) VH: EVQLVQSGAEVKKPGESLKISCKGSGYIFTNYWIAWVRQMPGKGLESMGIIYPGDSDIRYSPSFQGQVTISADKSITTAYLQWSSLKASDTAMYYCARHDIEGFDYWGRGTLVTVSS VL: EIVLTQSPGTLSLSPGERATLSCRASQSVSSSFFAWYQQKPGQAPRLLIYGASSRATGIPDRLSGSGSGTDFTLTITRLEPEDFAVYYCQQYDSSAITFGQGTRLEIK | 0.021 | 2.79 | 8.35 | 0.74 | 0.0101 | 0.01 | 4.3 | 20 | 7 | no binding | 0.06 | –
human FcγRI (CD64) (receptor, UniProt P12314 16-288, looked up) QVDTTKAVITLQPPWVSVFQEETVTLHCEVLHLPGSSSTQWFLNGTATQTSTPSYRITSASVNDSGEYRCQRGLSGRSDPIQLEIHRGWLLLQVSSRVFTEGEPLALRCHAWKDKLVYNVLYYRNGKAFKFFHWNSNLTILKTNISHNGTYHCSGMGKHRYTSAGISVTVKELFPAPVLNASVTSPLLEGNLVTLSCETKLLLQRPGLQLYFSFYMGSKTLRGRNTSSEYQILTARREDSGLYWCEAATEDGNVLKRSPELELQVLGLQLPTP | – | – | – | – | – | – | – | – | – | – | – | binding result (ovalbumin [8]): no binding
anti-IFNAR1 antibody 4G5 (antibody, V domains shown, Biotinylated for IHC) VH: QVQLQQWGAGLLKPSETLSLTCAVYGGSFSNYYWSWIRQPPGKGLEWIGEIILSGSTNYNPSLKSRVTISVDTSKNQFSLNLTSVTAADTAVYYCARESKWGYYFDSWGQGTLVTVSS VL: AIQLTQSPSSLSASVGDRVTITCRATQDISIALVWYQQKPGKAPELLIYDASGLGSGVPSRFSGSGSGTDFTLTISSLQPEDFATYYCQQFNSYPYTFGQGTKLEIK | – | – | – | – | – | – | – | – | – | – | – | binding result [9]: binds

Now from value to molecule, other results behind:

IC50, HiL3 ISRE-luciferase reporter assay, neutralization of Human Leukocyte IFN [2] [µg/mL] | IC50, HiL3 ISRE-luciferase reporter assay, neutralization of IFNα 2b [2] [ng/mL] | IC50, HiL3 ISRE-luciferase reporter assay, neutralization of IFNα10 [2] [ng/mL] | IC50, HiL3 ISRE-luciferase reporter assay, neutralization of IFNβ [2] [µg/mL] | IC50, HiL3 ISRE-luciferase reporter assay, neutralization of IFNω [2] [µg/mL] | IC50, luciferase reporter assay, Leukocyte IFN signaling [2] [nM] | IC50, suppression of CD38 expression on cells stimulated with leukocyte-IFN [2] [ng/mL] | IC50, suppression of CD86 expression on cells stimulated with leukocyte-IFN [2] [ng/mL] | IC50, suppression of CD123 expression on cells stimulated with leukocyte-IFN [2] [ng/mL] | binding result (ovalbumin [3]) | Kd [4] [nM] | Molecule | further results
– | – | – | – | – | 0.01 | 40 | 20 | 21 | – | 0.06 | modified anti-IFNAR1 antibody 9D4-DM (Double Mutant) (antibody, human IgG4, V domains shown, Biotinylated in some ELISAs) VH: EVQLVQSGAEVKKPGESLKISCKGSGYIFTNYWIAWVRQMPGKGLESMGIIYPGDSDIRYSPSFQGQVTISADKSITTAYLQWSSLKASDTAMYYCARHDIEGFDYWGRGTLVTVSS VL: EIVLTQSPGTLSLSPGERATLSCRASQSVSSSFFAWYQQKPGQAPRLLIYGASSRATGIPDRLSGSGSGTDFTLTITRLEPEDFAVYYCQQYDSSAITFGQGTRLEIK | –
0.0212 | 0.828 | 4.29 | 0.261 | 0.0142 | 0.02 | 25 | 26 | 10 | no binding | 0.03 | modified anti-IFNAR1 antibody 9D4-TM (Triple Mutant) (antibody, Labelled with europium, Alexa647 or biotin in some assays; also called 9D-TM; Alexa647-9D4-TM; copies: 2 + 2) VH: EVQLVQSGAEVKKPGESLKISCKGSGYIFTNYWIAWVRQMPGKGLESMGIIYPGDSDIRYSPSFQGQVTISADKSITTAYLQWSSLKASDTAMYYCARHDIEGFDYWGRGTLVTVSSASTKGPSVFPLAPSSKSTSGGTAALGCLVKDYFPEPVTVSWNSGALTSGVHTFPAVLQSSGLYSLSSVVTVPSSSLGTQTYICNVNHKPSNTKVDKRVEPKSCDKTHTCPPCPAPEFEGGPSVFLFPPKPKDTLMISRTPEVTCVVVDVSHEDPEVKFNWYVDGVEVHNAKTKPREEQYNSTYRVVSVLTVLHQDWLNGKEYKCKVSNKALPASIEKTISKAKGQPREPQVYTLPPSREEMTKNQVSLTCLVKGFYPSDIAVEWESNGQPENNYKTTPPVLDSDGSFFLYSKLTVDKSRWQQGNVFSCSVMHEALHNHYTQKSLSLSPGK VL: EIVLTQSPGTLSLSPGERATLSCRASQSVSSSFFAWYQQKPGQAPRLLIYGASSRATGIPDRLSGSGSGTDFTLTITRLEPEDFAVYYCQQYDSSAITFGQGTRLEIKRTVAAPSVFIFPPSDEQLKSGTASVVCLLNNFYPREAKVQWKVDNALQSGNSQESVTEQDSKDSTYSLSSTLTLSKADYEKHKVYACEVTHQGLSSPVTKSFNRGEC | IC50, PIL-5 ISRE luciferase reporter assay, neutralization of Type I interferons in SLE patient plasma [2]: 0.04 nM; IC50, inhibition of SLE plasma induced CD38 and CD123 expression on human monocytes (flow cytometry) [2]: 0.02 to 0.06 nM; IC50, luciferase reporter assay, inhibition of IFN-α1 activity [5]: 4 pM; IC50, luciferase reporter assay, inhibition of IFN-α2b activity [5]: 0.07 nM; IC50, luciferase reporter assay, inhibition of IFN-α4b activity [5]: 0.02 nM; IC50, luciferase reporter assay, inhibition of IFN-α6 activity [5]: 0.04 nM; IC50, luciferase reporter assay, inhibition of IFN-α7 activity [5]: 0.04 nM; IC50, luciferase reporter assay, inhibition of IFN-α8 activity [5]: 0.03 nM; IC50, luciferase reporter assay, inhibition of IFN-α10 activity [5]: 0.01 nM; IC50, luciferase reporter assay, inhibition of IFN-α14 activity [5]: 0.02 nM; IC50, luciferase reporter assay, inhibition of IFN-α16 activity [5]: 0.02 nM; IC50, luciferase reporter assay, inhibition of IFN-α17 activity [5]: 0.04 nM; IC50, luciferase reporter assay, inhibition of IFN-α21 activity [5]: 0.01 nM; IC50, luciferase reporter assay, inhibition of IFN-β1 activity [5]: 6.8 nM; IC50, luciferase reporter assay, inhibition of IFN-ω activity [5]: 0.1 nM; IC50, luciferase reporter assay, inhibition of Leukocyte Interferon activity [5]: 0.01 nM; binding result [6]: no binding (tested: 4.7 Log ng/ml (50 µg/ml by paragraph 350)); binding result [7]: no binding (tested: 4.7 Log ng/ml (50 µg/ml by paragraph 350))
